Drawing on PMC3326528, this text covers Km and kcat for four proteins.

As usually defined, the Km is the concentration of substrate that gives half-maximal velocity. Broadly, the kcat is the number of substrate molecules converted per active site and unit of time at saturation.

Substrate in the data set: C[S+](CC[C@H](N)C(=O)[O-])C[C@H]1O[C@@H](n2cnc3c(N)ncnc32)[C@H](O)[C@@H]1O
Kind of data set: Discontinuous HPLC assay of 5′-FDA formation with SAM varied at 200 mM fluoride. The data set is classed as biochemical. Conditions: pH 7.8; 25.0 °C.

B1: T80A (Streptantibioticus cattleyicolor; T80A) (protein)
chain: AANSTRRPIIAFMSDLGTTDDSVAQCKGLMYSICPDVTVVDVCHSMTPWDVEEGARYIVDLPRFFPEGTVFATTTYPAAGTTTRSVAVRIKQAAKGGARGQWAGSGAGFERAEGSYIYIAPNNGLLTTVLEEHGYLEAYEVTSPKVIPEQPEPTFYSREMVAIPSAHLAAGFPLSEVGRPLEDHEIVRFNRPAVEQDGEALVGVVSAIDHPFGNVWTNIHRTDLEKAGIGYGARLRLTLDGVLPFEAPLTPTFADAGEIGNIAIYLNSRGYLSIARNAASLAYPYHLKEGMSARVEAR
With B1, the Km was 3.0 ± 0.4 µM and the catalytic constant (kcat) was 8.33e-05 ± 3.33e-06 s⁻¹.

B2: S158A (Streptantibioticus cattleyicolor; S158A) (protein)
chain: AANSTRRPIIAFMSDLGTTDDSVAQCKGLMYSICPDVTVVDVCHSMTPWDVEEGARYIVDLPRFFPEGTVFATTTYPATGTTTRSVAVRIKQAAKGGARGQWAGSGAGFERAEGSYIYIAPNNGLLTTVLEEHGYLEAYEVTSPKVIPEQPEPTFYAREMVAIPSAHLAAGFPLSEVGRPLEDHEIVRFNRPAVEQDGEALVGVVSAIDHPFGNVWTNIHRTDLEKAGIGYGARLRLTLDGVLPFEAPLTPTFADAGEIGNIAIYLNSRGYLSIARNAASLAYPYHLKEGMSARVEAR
Consider B2, for which the Km came out at 9.2 ± 1.2 µM and the catalytic constant (kcat) worked out at 0.00015 ± 1e-05 s⁻¹.

B3: T80S (Streptantibioticus cattleyicolor; T80S) (protein)
chain: AANSTRRPIIAFMSDLGTTDDSVAQCKGLMYSICPDVTVVDVCHSMTPWDVEEGARYIVDLPRFFPEGTVFATTTYPASGTTTRSVAVRIKQAAKGGARGQWAGSGAGFERAEGSYIYIAPNNGLLTTVLEEHGYLEAYEVTSPKVIPEQPEPTFYSREMVAIPSAHLAAGFPLSEVGRPLEDHEIVRFNRPAVEQDGEALVGVVSAIDHPFGNVWTNIHRTDLEKAGIGYGARLRLTLDGVLPFEAPLTPTFADAGEIGNIAIYLNSRGYLSIARNAASLAYPYHLKEGMSARVEAR
B3: the Km came out at 4.7 ± 0.4 µM and the kcat came out at 0.001 ± 3.33e-05 s⁻¹.

B4: S158G (Streptantibioticus cattleyicolor; S158G) (protein)
chain: AANSTRRPIIAFMSDLGTTDDSVAQCKGLMYSICPDVTVVDVCHSMTPWDVEEGARYIVDLPRFFPEGTVFATTTYPATGTTTRSVAVRIKQAAKGGARGQWAGSGAGFERAEGSYIYIAPNNGLLTTVLEEHGYLEAYEVTSPKVIPEQPEPTFYGREMVAIPSAHLAAGFPLSEVGRPLEDHEIVRFNRPAVEQDGEALVGVVSAIDHPFGNVWTNIHRTDLEKAGIGYGARLRLTLDGVLPFEAPLTPTFADAGEIGNIAIYLNSRGYLSIARNAASLAYPYHLKEGMSARVEAR
Regarding B4, the Km was found to be 0.8 ± 0.5 µM and the catalytic constant (kcat) is 1.17e-05 ± 5e-07 s⁻¹.
